Test results published in patent publication US12570750B2, “Antibodies that bind adenosine A2A receptors and methods of use thereof to treat cancer and neurological diseases” (Twist Bioscience Corporation, priority 2019, dated 2026).

Biological target: adenosine A2A receptor (Homo sapiens, UniProt P29274)
Experiment: LANCE allosteric cAMP assay: titrated IgG, then fixed NECA concentration
Type: cell-based
Details: Table 12
Procedure: A2A-1 and A2A-9 were assayed for allosteric modulation.
A2A-9 was assayed as described in Example 16.

Chain of adenosine A2A receptor (P29274 whole entry): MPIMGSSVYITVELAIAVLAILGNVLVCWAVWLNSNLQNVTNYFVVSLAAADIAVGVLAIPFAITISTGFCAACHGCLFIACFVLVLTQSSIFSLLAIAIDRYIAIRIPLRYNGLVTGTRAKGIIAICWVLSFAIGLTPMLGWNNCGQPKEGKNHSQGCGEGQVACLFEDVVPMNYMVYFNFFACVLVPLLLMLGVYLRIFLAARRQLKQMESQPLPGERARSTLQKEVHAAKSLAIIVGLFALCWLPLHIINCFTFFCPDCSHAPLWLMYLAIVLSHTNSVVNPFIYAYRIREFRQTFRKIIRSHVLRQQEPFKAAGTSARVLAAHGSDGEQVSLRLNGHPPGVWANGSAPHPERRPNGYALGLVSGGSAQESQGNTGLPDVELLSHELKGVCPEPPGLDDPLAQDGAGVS

B1: A2A-9: A2AR variant immunoglobulin, CDRH1-3 SEQ ID NOs 14/103/192 (antibody, V domains shown)
VH: EVQLQQSGPGLVKPSQSLSLTCSVTGYSITSGYYWNWIRQFPGKKLEWMGYIRYDGSNNYNPSLKNRISITRDTSKNQFFLKLNSVTTDDTATYYCARVHHYYGSSYFDYWGQGTTLTVSS
VL: DIVMTQSQKFMSTSVGDRVSATCKASQNVGSSVAWFQQKPGQSPKALIYSTSYRYSGVPDRFTGSGSGTDFTLTISNVQSEDLAEYFCQQYNSYPLTFGAGTKLEIK
Functional classification, Example 18: antagonist
